Laboratory results reported in PMC8770954.

Experiments:
Experiment in all cases: SPR; imaging SPR (IBIS MX96); IgG immobilised on a carboxymethyldextran sensor (CMD200M) by carbodiimide chemistry with a Continuous Flow Microspotter, printed at 300 and 150 nM; soluble receptor as analyte from 20 uM, 1:3 over 8 points; 5 min association and 5 min dissociation; equilibrium KD (Scrubber 2)
[1] = biological target: Rh7B2 IgG1 (rhesusized variant of human 7B2) (rhesus macaque (Macaca mulatta))
[2] = biological target: RhDH827 IgG1 (rhesusized variant of human DH827) (rhesus macaque (Macaca mulatta))
Chain of RhDH827 IgG1 (rhesusized variant of human DH827) (rhesus macaque (Macaca mulatta)) (heavy, as listed by the source, chain 1 of 2): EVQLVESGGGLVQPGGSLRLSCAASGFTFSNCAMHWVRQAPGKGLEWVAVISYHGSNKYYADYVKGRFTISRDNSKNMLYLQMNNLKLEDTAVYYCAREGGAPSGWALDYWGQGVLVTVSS
Chain of RhDH827 IgG1 (rhesusized variant of human DH827) (rhesus macaque (Macaca mulatta)) (light, as listed by the source, chain 2 of 2): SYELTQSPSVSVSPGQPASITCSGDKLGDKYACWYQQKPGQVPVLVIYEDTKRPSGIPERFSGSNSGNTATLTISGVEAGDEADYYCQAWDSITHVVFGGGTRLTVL

[3] = biological target: RhDH677.3 IgG1 (rhesusized variant of human DH677.3) (rhesus macaque (Macaca mulatta))
Chain of RhDH677.3 IgG1 (rhesusized variant of human DH677.3) (rhesus macaque (Macaca mulatta)) (heavy, as listed by the source, chain 1 of 2): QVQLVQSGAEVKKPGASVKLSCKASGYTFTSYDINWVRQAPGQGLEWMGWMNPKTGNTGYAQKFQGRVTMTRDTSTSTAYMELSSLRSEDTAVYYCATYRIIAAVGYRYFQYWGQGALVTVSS
Chain of RhDH677.3 IgG1 (rhesusized variant of human DH677.3) (rhesus macaque (Macaca mulatta)) (light, as listed by the source, chain 2 of 2): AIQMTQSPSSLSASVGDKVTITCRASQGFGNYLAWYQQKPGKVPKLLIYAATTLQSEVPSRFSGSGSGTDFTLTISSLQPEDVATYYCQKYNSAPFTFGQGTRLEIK

Chain of human FcγRIIIa (F158) (P08637 17-208): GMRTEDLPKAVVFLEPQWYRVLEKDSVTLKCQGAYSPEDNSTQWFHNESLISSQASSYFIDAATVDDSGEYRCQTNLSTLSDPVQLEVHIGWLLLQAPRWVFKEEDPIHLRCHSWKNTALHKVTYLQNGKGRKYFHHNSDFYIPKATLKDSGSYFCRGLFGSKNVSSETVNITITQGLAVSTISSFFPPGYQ
Chain of Rh7B2 IgG1 (rhesusized variant of human 7B2) (rhesus macaque (Macaca mulatta)) (heavy, as listed by the source, chain 1 of 2): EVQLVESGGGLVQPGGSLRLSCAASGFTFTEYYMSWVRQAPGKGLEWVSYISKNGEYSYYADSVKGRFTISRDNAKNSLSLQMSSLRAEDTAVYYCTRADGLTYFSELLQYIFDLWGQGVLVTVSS
Chain of Rh7B2 IgG1 (rhesusized variant of human 7B2) (rhesus macaque (Macaca mulatta)) (light, as listed by the source, chain 2 of 2): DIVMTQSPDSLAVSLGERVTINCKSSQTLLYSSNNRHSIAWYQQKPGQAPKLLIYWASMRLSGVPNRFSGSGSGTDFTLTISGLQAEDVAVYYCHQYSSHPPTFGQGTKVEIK

Substance | Kd [1] [µM] | Kd [2] [µM] | Kd [3] [µM]
human FcγRIIa (H131) (from UniProt P12318 34-217) (receptor) | 4.4 | 3.7 | –
human FcγRIIb (from UniProt P31994 43-217) (receptor) | 8.5 | – | 7.9
rhesus macaque FcγRIIa-1 (receptor) | 6 | 5.7 | 4.7
rhesus macaque FcγRIIa-2 (receptor) | 5.5 | 5.5 | 4.9
rhesus macaque FcγRIIa-4 (receptor) | 7.7 | 6.9 | 6.2

Stronger by Kd [1], values ahead:

Kd [1] [µM] | Kd [2] [µM] | Kd [3] [µM] | Substance
3.8 | 4.1 | 3.8 | human FcγRIIIa (F158) (from UniProt P08637 17-208) (receptor)
3.7 | 3.7 | 3.7 | rhesus macaque FcγRIIb-1 (receptor)
